Values of other authors, collected in patent publication US9180102B2, “Methods for fabricating nano and microparticles for drug delivery” (BOARD OF REGENTS, THE UNIVERSITY OF TEXAS SYSTEM, priority 2005, dated 2015).

Target: Cathepsin B (Homo sapiens, UniProt P07858)
Conditions: degradation of peptide spacer by lysosomal protease

sensitivity of peptide spacer sequence to Cathepsin B: especially sensitive
Substance: Gly-Phe-Leu-Gly (GFLG; printed: Gly-Phe-Leu-Gly)
